Changes are numbered by the printed parent chain.

Sequences and labels used below:
T1: cynomolgus (Macaca fascicularis) ST2L extracellular domain with C-terminal His6 tag (Macaca fascicularis (cynomolgus), UniProt Q01638 19-321 (human entry))
T1 construct: also called cyno ST2L-ECD; cynoST2L-ECD
T1 chain: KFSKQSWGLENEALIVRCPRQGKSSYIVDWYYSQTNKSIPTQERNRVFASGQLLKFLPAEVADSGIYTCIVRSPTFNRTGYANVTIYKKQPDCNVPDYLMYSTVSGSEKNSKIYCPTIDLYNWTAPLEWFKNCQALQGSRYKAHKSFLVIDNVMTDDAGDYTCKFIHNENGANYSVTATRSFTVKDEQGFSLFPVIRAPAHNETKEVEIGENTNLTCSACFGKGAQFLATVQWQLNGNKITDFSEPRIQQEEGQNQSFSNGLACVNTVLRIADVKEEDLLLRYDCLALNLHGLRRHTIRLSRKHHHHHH

T2: human ST2L extracellular domain with C-terminal His6 tag (human, UniProt Q01638 19-328)
T2 construct: also called huST2L-ECD; ST2L-ECD
T2 sequence: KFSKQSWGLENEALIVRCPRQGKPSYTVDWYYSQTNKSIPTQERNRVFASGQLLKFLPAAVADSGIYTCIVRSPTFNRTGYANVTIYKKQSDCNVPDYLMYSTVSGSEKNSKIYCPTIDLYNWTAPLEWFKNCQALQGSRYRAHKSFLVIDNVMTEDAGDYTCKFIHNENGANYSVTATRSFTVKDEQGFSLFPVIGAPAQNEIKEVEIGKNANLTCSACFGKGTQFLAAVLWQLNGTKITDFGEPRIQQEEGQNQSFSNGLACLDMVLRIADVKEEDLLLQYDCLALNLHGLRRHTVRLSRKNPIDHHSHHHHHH

B1: STLM203 (antibody, V domains shown)
VH: EVQLVQSGAEVKKPGATVKISCKVSAFNIKDDYMHWVQQAPGKGLEWMGRIDPAIGNTEYAEKFQGRVTITADTSTDTAYMELSSLRSEDTAVYYCATGDFYAMDYWGQGTLVTVSS
VL: DIQMTQSPSSLSASVGDRVTITCITNTDIDDVIHWYQQKPGKAPKLLIYEGNTLRPGVPSRFSGSGSGTDFTLTISSLQPEDFATYYCLQSDNMLTFGQGTKLEIK
notes: C2494 HFA mAb: VH STLH194 + VL STLL274 (O12)
B2: STLM199 (antibody, V domains shown)
VH: B1 VH
VL: EIVMTQSPATLSVSPGERATLSCITNTDIDDVIHWYQQKPGQAPRLLIYEGNTLRPGIPARFSGSGSGTEFTLTISSLQSEDFAVYYCLQSDNMLTFGQGTKLEIK
notes: C2494 HFA mAb: VH STLH194 + VL STLL278 (L2)
B3: STLM194 (antibody, V domains shown)
VH: B1 VH with E1Q, T17S, I20V, Q38R, E62P, G66D, I70M, A72E
VL: B1 VL with A43V, F83V
notes: C2494 HFA mAb: VH STLH195 + VL STLL273 (A20)
B4: STLM192 (antibody, V domains shown)
VH: B1 VH with E1Q, T17S, I20V, Q38R, E62P, G66D, I70M, A72E
VL: B1 VL with L11V
notes: C2494 HFA mAb: VH STLH195 + VL STLL275 (L5)
B5: STLM201 (antibody, V domains shown)
VH: B1 VH
VL: B1 VL with S10T, D70E, E81D
notes: C2494 HFA mAb: VH STLH194 + VL STLL276 (L12)
B6: STLM191 (antibody, V domains shown)
VH: B1 VH with E1Q, T17S, I20V, Q38R, E62P, G66D, I70M, A72E
VL: B1 VL with S10T, D70E, E81D
notes: C2494 HFA mAb: VH STLH195 + VL STLL276 (L12)
B7: STLM195 (antibody, V domains shown)
VH: B1 VH with E1Q, T17S, I20V, Q38R, E62P, G66D, I70M, A72E
VL: B1 VL with L73F, F83I
notes: C2494 HFA mAb: VH STLH195 + VL STLL272 (O18)
B8: STLM193 (antibody, V domains shown)
VH: B1 VH with E1Q, T17S, I20V, Q38R, E62P, G66D, I70M, A72E
VL: B1 VL
notes: C2494 HFA mAb: VH STLH195 + VL STLL274 (O12)
B9: STLM204 (antibody, V domains shown)
VH: B1 VH
VL: B1 VL with A43V, F83V
notes: C2494 HFA mAb: VH STLH194 + VL STLL273 (A20)
B10: STLM200 (antibody, V domains shown)
VH: B1 VH
VL: B1 VL with M4L, S10F, D70E
notes: C2494 HFA mAb: VH STLH194 + VL STLL277 (L8)
B11: STLM202 (antibody, V domains shown)
VH: B1 VH
VL: B1 VL with L11V
notes: C2494 HFA mAb: VH STLH194 + VL STLL275 (L5)
B12: STLM197 (antibody, V domains shown)
VH: B1 VH
VL: B1 VL with M94L
notes: C2494 HFA mAb: VH STLH194 (IGHV1-f*01) + VL STLL280 (O12b)
B13: STLM190 (antibody, V domains shown)
VH: B1 VH with E1Q, T17S, I20V, Q38R, E62P, G66D, I70M, A72E
VL: B1 VL with M4L, S10F, D70E
notes: C2494 HFA mAb: VH STLH195 + VL STLL277 (L8)
B14: STLM205 (antibody, V domains shown)
VH: B1 VH
VL: B1 VL with L73F, F83I
notes: C2494 HFA mAb: VH STLH194 + VL STLL272 (O18)
B15: STLM187 (antibody, V domains shown)
VH: B1 VH with E1Q, T17S, I20V, Q38R, E62P, G66D, I70M, A72E
VL: B1 VL with M94L
notes: C2494 HFA mAb: VH STLH195 (IGHV1-24*01) + VL STLL280 (O12b)

One experiment deals with T1, cynomolgus (Macaca fascicularis) ST2L …. The experiment in a line: ProteOn SPR, mAb captured, ST2L-ECD in solution. As for the experimental part: (§1) The affinities were analyzed by ProteOn. The experiments were performed at 25° C. using ProteOn's PBS-T-E buffer (PBS, 0.005% P20 and 3 mM EDTA) as running buffer. […] Mab capture was followed by injection of ST2L-ECD from 0.024-15 nM (5-fold dilutions) for 4 min (200 μL at 50 μL/min). The dissociation was monitored for 30 minutes for all reaction. Regeneration was performed using two 15 sec pulses of 10 mM glycine pH1.5. The data was fitted to a 1:1 with baseline drift model.
(§2) Association rates for the samples are fast, the langmuir with mass transfer model was used for curve fitting and estimation of Affinity. All of the samples had faster off rates than the parental clone and control Mab. The difference in off rate was the primary contributor to the lower affinity of the HFA variants when compared to the parent antibody.
In general, Kd refers to a measure of binding affinity in units of concentration. High values mean weaker binding, low ones tighter binding. For orientation: koff means the rate constant with which the complex falls apart. Broadly, the kon is the rate constant with which the complex forms. B1: the Kd is 0.111 nM, the koff was 0.00656 s⁻¹ and the kon turned out to be 5.88e+07 M⁻¹ s⁻¹.
In the same order, the values of B2 are 0.0845 nM, 0.00657 s⁻¹ and 7.78e+07 M⁻¹ s⁻¹.
In the same order, the values of B3 are 1.9 nM, 0.19 s⁻¹ and 1e+08 M⁻¹ s⁻¹.
B4 showed a Kd of 0.999 nM, a koff of 0.0999 s⁻¹ and a kon of 1e+08 M⁻¹ s⁻¹.
In the same order, the values of B5 are 0.116 nM, 0.0041 s⁻¹ and 3.55e+07 M⁻¹ s⁻¹.
Taken in the same sequence, the figures for B6 were 0.666 nM, 0.0666 s⁻¹ and 1e+08 M⁻¹ s⁻¹.
Taken in the same sequence, the figures for B7 were 0.719 nM, 0.0719 s⁻¹ and 1e+08 M⁻¹ s⁻¹.
B8 yielded a Kd of 0.932 nM, an off-rate constant (koff) of 0.0932 s⁻¹ and an on-rate constant (kon) of 1e+08 M⁻¹ s⁻¹.
In the same order, the values of B9 are 0.205 nM, 0.0205 s⁻¹ and 1e+08 M⁻¹ s⁻¹.
Taken in the same sequence, the figures for B10 were 0.134 nM, 0.011 s⁻¹ and 8.23e+07 M⁻¹ s⁻¹.
Turning to B11, the Kd amounted to 0.134 nM, the off-rate constant (koff) turned out to be 0.0104 s⁻¹ and the kon amounted to 7.75e+07 M⁻¹ s⁻¹.
In the same order, the values of B12 are 0.232 nM, 0.00688 s⁻¹ and 2.97e+07 M⁻¹ s⁻¹.
In the same order, the values of B13 are 1.02 nM, 0.102 s⁻¹ and 1e+08 M⁻¹ s⁻¹.
For the molecule B14, binding was put at a Kd of 0.1 nM, the koff stood at 0.00404 s⁻¹ and the on-rate (kon) was determined as 4.04e+07 M⁻¹ s⁻¹.
Take B15: the equilibrium dissociation constant (Kd) stood at 1.1 nM, the off-rate constant (koff) came to 0.11 s⁻¹ and the kon was 1e+08 M⁻¹ s⁻¹.

The target of another experiment is T2, human ST2L extracellular domain with …. As to the kind of experiment: ProteOn SPR, mAb captured, ST2L-ECD in solution. As for the experimental part: as §1, §2
B1 displayed a Kd of 0.0473 nM, an off-rate constant (koff) of 0.000967 s⁻¹ and a kon of 2.04e+07 M⁻¹ s⁻¹.
In the same order, the values of B2 are 0.0414 nM, 0.000897 s⁻¹ and 2.17e+07 M⁻¹ s⁻¹.
Taken in the same sequence, the figures for B3 were 0.703 nM, 0.0703 s⁻¹ and 1e+08 M⁻¹ s⁻¹.
In the same order, the values of B4 are 0.42 nM, 0.00885 s⁻¹ and 2.11e+07 M⁻¹ s⁻¹.
The molecule B5 gave a Kd of 0.0484 nM, a koff of 0.000852 s⁻¹ and an association rate constant (kon) of 1.76e+07 M⁻¹ s⁻¹.
The molecule B6 registered a Kd of 0.292 nM, a koff of 0.0247 s⁻¹ and an on-rate (kon) of 8.46e+07 M⁻¹ s⁻¹.
Turning to B7, the dissociation constant (Kd) worked out at 0.271 nM, the koff was 0.00673 s⁻¹ and the kon is 2.49e+07 M⁻¹ s⁻¹.
Taken in the same sequence, the figures for B8 were 0.267 nM, 0.0127 s⁻¹ and 4.77e+07 M⁻¹ s⁻¹.
In the same order, the values of B9 are 0.0813 nM, 0.00241 s⁻¹ and 2.97e+07 M⁻¹ s⁻¹.
Taken in the same sequence, the figures for B10 were 0.0608 nM, 0.00143 s⁻¹ and 2.35e+07 M⁻¹ s⁻¹.
Regarding B11, the dissociation constant Kd came out at 0.0529 nM, the koff came out at 0.00119 s⁻¹ and the association rate constant (kon) is 2.24e+07 M⁻¹ s⁻¹.
Taken in the same sequence, the figures for B12 were 0.0885 nM, 0.00162 s⁻¹ and 1.83e+07 M⁻¹ s⁻¹.
In the same order, the values of B13 are 0.534 nM, 0.0534 s⁻¹ and 1e+08 M⁻¹ s⁻¹.
Molecule B14 showed a Kd of 0.0401 nM, an off-rate constant (koff) of 0.000695 s⁻¹ and a kon of 1.73e+07 M⁻¹ s⁻¹.
In the same order, the values of B15 are 0.473 nM, 0.0159 s⁻¹ and 3.37e+07 M⁻¹ s⁻¹.

These data come from patent US20170066831A1 (Janssen / Centocor, published 2017).
